Twelve sequences from the supplement of paper PMC9170038 can be followed below.

This data set has as its system MS2 coat protein. The data set is described as follows: apparent KD of MS2 coat protein; designed switch direction (-1 OFF switch, 1 ON switch): 1; higher = weaker reporter binding. An outline of the steps:
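Transcription of designed RNA switches on Illumina chips was done by stalled E. coli RNA polymerase. SNAP-549-labelled MS2 coat protein was then titrated in doubling steps from 0.7 or 1.5 nM to 3 µM, with steps of 0.8–1.5 h at the lowest and 10–20 min at the highest concentration. The per-design median over clusters of curve-fitted normalised fluorescence is reported as apparent KD.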

Where [1] appears, read: Eterna round: R95, input ligand: FMN 200 uM.
Setting [2] is: Eterna round: R95, input ligand: microRNA oligo, concentration not stated.
The mark [3] stands for this setting: Eterna round: R95, input ligand: none.
Setting [4] is: input ligand: microRNA oligo, concentration not stated.

“UCUUGGUUUUUGCUCGUUUUUUGUGUUGAACAUGAGGAUCACCCAUGUAUUGUACAAUCCAGUUUAAUAAUGGUCCA [Mod of one of JR's submissions 2] (puzzle: Sensor for hsa-mir-208a)”: the “apparent KD of MS2 coat protein” value under setting [1] was found to be 55 nM, the “apparent KD of MS2 coat protein” value under setting [2] is 51 nM and the “apparent KD of MS2 coat protein” value under setting [3] was determined as 61.7 nM.
Turning to “CUUUCUCUUGCAGGAUAUCCUAGUCUUCGGUUAGGAGAAGGGCAAGGAAAUUUGCUAAGCAAGUCUGUAACAGAGAUCCUCCUC [pwkr ssNG1 F9.1] (Eterna round: R96, puzzle: Same State NG 1)”, the “apparent KD of MS2 coat protein” value amounted to 30.8 nM (input ligand: FMN 200 uM), 313 nM under setting [4] and 37.9 nM (input ligand: none).
For “AUAAAACAUGAGGAUCACCCAUGUCAACAAAGUCGAGGAUAUGGGCAAAUAAAAUAAGAACCAGAAGGCGAAUUAU [salish99_ss1_r3_036] (Eterna round: R96, puzzle: Same State 1)”, the “apparent KD of MS2 coat protein” value (input ligand: FMN 200 uM) came out at 36.8 nM, the “apparent KD of MS2 coat protein” value under setting [4] stood at 185 nM and the “apparent KD of MS2 coat protein” value (input ligand: none) was 247 nM.
“CUCAACAACACAGGAUAUCCAGGGAAAAGACCUGGAGAAGGGUGACCAACAUGAGGAUCACCCAUGUGACAGCCAGGCUGUCUG [Esisiszaon] (Eterna round: R96, puzzle: Same State NG 1)”: the “apparent KD of MS2 coat protein” value reads like this: (input ligand: FMN 200 uM) 164 nM; under setting [4], 84.4 nM; (input ligand: none) 47.7 nM.
As for “AGUCCAGCCUGAGCUGGACAAAAGCAUGUACAUGAGGAUCACCCAUGUUCAUGUACAAGCUUUUUGCUCGUCUUGCC [salish99_208a_r3_107x] (puzzle: Sensor for hsa-mir-208a)”, the “apparent KD of MS2 coat protein” value by setting is: under setting [1], 634 nM; under setting [2], 15.9 nM; under setting [3], 1130 nM.
With “UUAAUUAAUUAAUUAUACAUGAGGAUCACCCAUGUAAGUGAUCAGGAUAUCAGCUCGAUUAGAGCUGAGAAGGGAUACAUGAAU [SSNG3/12-A2] (Eterna round: R96, puzzle: Same State NG 3)”, the “apparent KD of MS2 coat protein” value was found to be 94.4 nM (input ligand: FMN 200 uM), 88.3 nM under setting [4] and 139 nM (input ligand: none).
Take “UUAAGCCACGGGCAGGAUAUGUAUUAAAGUACAUGAGGAUCACCCAUGUGCAGGUGUAACACCUGACAGAAGGGCCAAUCGCGGC [Soondi - 3] (puzzle: Same State 2)”: the “apparent KD of MS2 coat protein” value by setting is: under setting [1], 16 nM; under setting [2], 68 nM; under setting [3], 72.7 nM.
On to “CAUCUCCCUUUUACAUGAGGAUCACCCAUGUUUUCAUAUUGAGAGGAUAUCGUAUUUGGAAACAUCGAGAAGGCUCAUUUGUAU [JR_SSNG3_Sub073] (Eterna round: R96, puzzle: Same State NG 3)”, for which, under setting [4], the “apparent KD of MS2 coat protein” value was 345 nM.
Same read-out and setting: under “UAGUGAUUGCAAGGAUAUGCUAGUUUUUAUUUGUGUUUGAUAACAAACAUGAGGAUCACCCAUGUGCAGAAGGUGCUAGAUAUG [JR_SSNG2_Sub079] (Eterna round: R96, puzzle: Same State NG 2)” stands 348 nM.
In the case of “AGAGAACAUGAGGAUCACCCAUGUGGGAGAGGCAUAGGAUAUAGAGGAGAGAGCGAGGAACUAGAAGGAUGAUGGA [JR_SS1_Sub080] (puzzle: Same State 1)”, the “apparent KD of MS2 coat protein” value by setting is: under setting [1], 47.3 nM; under setting [2], 70.7 nM; under setting [3], 91.3 nM.
For “GUACUACAUGAGGAUCACCCAUGUACGCCAGUACGAGGAUAUGCAUGGGCGCUAGCUGGUGCAGAAGGCGUAGUGC [Pin2Pin #6] (puzzle: Same State 1)”, in that order: 21 nM, 24 nM and 45.5 nM.
As for “CGUCCGGCCUGAGCUGGUCGGAAGCAUGUACAUGAGGAUCACCCAUGUUCAUGUGCAGGCUUUUUGCUCGUCUUGUG [salish99_mir208a_modof_jandersonlee_004] (puzzle: Sensor for hsa-mir-208a)”, the “apparent KD of MS2 coat protein” value is, setting by setting: under setting [1], 39.8 nM; under setting [2], 13.1 nM; under setting [3], 39.6 nM.
